The text below walks through data of PMC3064778.

One data set concerns the target AddANBN (Bacillus subtilis, UniProt P23478;P23477 1-1232;1-1166, D1172A;D961A). Kind of data set: EMSA. For orientation: Mobility shift assays separate free from complexed probe on a gel.
The target in another data set is AddAB (Bacillus subtilis, UniProt P23478;P23477 1-1232;1-1166). Description: EMSA.

B1: Cy5Bind15 (dsDNA)
DNA 1: CCGCCTCTTGGCCGATTCA
DNA 2: TCGGCCAAGAGGCGGTTTG
As for B1, the binding result with AddANBN is reported as “binds”.

B2: Bind15 (dsDNA)
DNA 1: CCGCCTCTTGGCCGATTCA
DNA 2: TCGGCCAAGAGGCGGTTTG
B2: the binding result with AddAB is listed as “binds”.
